Patent EP4782464A1 (Nanjing Legend Biotech Co., Ltd., dated 2026)
Blank lines part the entries; values can stand above or below the binder they belong to.

Assays:
[1] = target: T1, human GCC (guanylyl cyclase C, GUCY2C) on cells (human, UniProt P25092 24-1073); assay: flow cytometry, B cell clone supernatant on Dubca-human GCC.Luc cells
T1 construct: whole, on cells; also called Dubca-human GCC.Luc

[2] = target: mouse GCC (guanylyl cyclase C, GUCY2C) on cells (mouse) (UniProt Q3UWA6); assay: flow cytometry, B cell clone supernatant on Dubca-mouse GCC.Luc cells
[3] = target: human GCC (guanylyl cyclase C, GUCY2C) on cells (human) (UniProt P25092); assay: flow cytometry, B cell clone supernatant on Dubca-human GCC.Luc cells
[4] = target: T2, His-tagged mouse GUCY2C/guanylyl cyclase C protein (ACRO GUC-M52H3) (mouse, UniProt Q3UWA6 20-433, limits assumed); assay: ELISA, plate coated with mouse GCC-his protein at 1 µg/mL
T2 construct: Bought protein; also called mouse GCC-his protein; mouse GCC-his; not shown: His tag
T2 sequence (looked up): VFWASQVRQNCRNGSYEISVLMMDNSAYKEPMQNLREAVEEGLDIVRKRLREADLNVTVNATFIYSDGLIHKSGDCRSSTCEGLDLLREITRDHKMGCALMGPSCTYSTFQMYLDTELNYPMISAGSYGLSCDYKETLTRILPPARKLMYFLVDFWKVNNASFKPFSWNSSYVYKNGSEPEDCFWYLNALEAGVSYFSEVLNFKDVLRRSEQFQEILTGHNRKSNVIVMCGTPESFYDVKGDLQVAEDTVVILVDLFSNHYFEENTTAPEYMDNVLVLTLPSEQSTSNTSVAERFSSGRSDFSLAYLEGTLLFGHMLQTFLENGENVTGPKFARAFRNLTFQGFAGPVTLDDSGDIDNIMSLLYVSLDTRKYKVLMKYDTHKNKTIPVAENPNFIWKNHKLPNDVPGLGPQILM

[5] = target: T3, His-tagged human GUCY2C/Guanylyl cyclase C protein (ACRO GUC-H52H5) (human, UniProt P25092 24-430); assay: ELISA, plate coated with human GCC-his protein at 1 µg/mL
T3 construct: Bought protein; also called human GCC-his protein; human GCC-his; not shown: His tag

[6] = target: T4, mouse GCC (guanylyl cyclase C, GUCY2C) on cells (mouse, UniProt Q3UWA6 20-1072); assay: flow cytometry on 293T-mouse GCC.Luc cells
T4 construct: whole, on cells; also called Dubca-mouse GCC.Luc
T4 sequence (looked up): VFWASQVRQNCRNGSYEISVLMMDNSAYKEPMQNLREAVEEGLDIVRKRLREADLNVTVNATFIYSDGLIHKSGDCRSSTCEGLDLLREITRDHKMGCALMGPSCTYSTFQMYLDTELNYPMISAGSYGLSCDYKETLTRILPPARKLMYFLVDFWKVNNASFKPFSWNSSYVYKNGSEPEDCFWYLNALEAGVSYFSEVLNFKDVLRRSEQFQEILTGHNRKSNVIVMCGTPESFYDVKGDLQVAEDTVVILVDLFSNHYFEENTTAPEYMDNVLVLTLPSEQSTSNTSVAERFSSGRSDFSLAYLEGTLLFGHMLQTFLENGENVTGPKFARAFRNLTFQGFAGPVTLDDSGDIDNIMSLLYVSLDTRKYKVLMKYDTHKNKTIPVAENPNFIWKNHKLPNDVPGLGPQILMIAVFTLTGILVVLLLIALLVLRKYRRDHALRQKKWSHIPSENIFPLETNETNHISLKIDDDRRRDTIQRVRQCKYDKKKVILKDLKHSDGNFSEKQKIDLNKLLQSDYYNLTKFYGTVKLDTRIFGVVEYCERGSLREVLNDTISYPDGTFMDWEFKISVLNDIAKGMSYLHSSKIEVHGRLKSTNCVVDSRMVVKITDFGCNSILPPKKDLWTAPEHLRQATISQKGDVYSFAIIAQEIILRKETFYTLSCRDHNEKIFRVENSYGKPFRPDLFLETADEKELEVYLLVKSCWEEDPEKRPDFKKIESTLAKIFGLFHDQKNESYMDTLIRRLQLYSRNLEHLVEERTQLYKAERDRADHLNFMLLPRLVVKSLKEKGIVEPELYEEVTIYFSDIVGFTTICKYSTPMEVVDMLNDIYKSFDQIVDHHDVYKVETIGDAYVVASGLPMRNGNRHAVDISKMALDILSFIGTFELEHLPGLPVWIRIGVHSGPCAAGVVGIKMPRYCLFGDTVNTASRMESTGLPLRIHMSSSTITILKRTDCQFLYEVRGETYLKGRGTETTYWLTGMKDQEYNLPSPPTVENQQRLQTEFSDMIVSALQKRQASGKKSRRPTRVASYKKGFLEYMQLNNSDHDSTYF

[7] = target: T1, human GCC (guanylyl cyclase C, GUCY2C) …; assay: flow cytometry on 293T-human GCC.Luc cells

human GCC (guanylyl cyclase C, GUCY2C) on cells (human), sequence (P25092 24-1073): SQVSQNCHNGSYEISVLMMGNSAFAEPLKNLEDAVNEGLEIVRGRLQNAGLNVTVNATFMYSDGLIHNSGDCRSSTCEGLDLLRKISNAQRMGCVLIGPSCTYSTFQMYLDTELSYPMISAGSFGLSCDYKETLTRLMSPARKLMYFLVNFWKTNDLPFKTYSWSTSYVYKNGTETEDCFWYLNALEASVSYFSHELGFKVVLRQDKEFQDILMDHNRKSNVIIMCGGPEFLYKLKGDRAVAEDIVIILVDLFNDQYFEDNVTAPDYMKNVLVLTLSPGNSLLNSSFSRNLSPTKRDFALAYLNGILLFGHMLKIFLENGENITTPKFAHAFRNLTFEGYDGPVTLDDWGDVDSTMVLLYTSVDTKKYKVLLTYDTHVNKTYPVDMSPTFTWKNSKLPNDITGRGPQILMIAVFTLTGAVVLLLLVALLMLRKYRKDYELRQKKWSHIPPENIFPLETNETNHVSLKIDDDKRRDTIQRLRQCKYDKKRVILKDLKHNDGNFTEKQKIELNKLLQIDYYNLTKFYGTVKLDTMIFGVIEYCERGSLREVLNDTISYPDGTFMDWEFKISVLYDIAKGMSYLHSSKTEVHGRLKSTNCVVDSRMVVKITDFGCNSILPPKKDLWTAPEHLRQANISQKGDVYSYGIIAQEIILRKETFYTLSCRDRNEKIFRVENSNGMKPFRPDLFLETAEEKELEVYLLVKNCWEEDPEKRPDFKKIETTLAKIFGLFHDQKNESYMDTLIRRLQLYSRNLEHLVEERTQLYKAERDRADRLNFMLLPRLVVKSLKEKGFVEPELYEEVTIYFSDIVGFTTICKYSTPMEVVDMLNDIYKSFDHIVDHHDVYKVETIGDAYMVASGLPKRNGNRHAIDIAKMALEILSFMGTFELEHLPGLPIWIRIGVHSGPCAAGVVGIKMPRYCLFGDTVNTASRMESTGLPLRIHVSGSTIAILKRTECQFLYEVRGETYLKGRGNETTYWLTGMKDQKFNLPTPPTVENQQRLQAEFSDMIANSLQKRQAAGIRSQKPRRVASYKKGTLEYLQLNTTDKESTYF
T1 sequence (P25092 24-1073): as above
T3 sequence (P25092 24-430 limits assumed): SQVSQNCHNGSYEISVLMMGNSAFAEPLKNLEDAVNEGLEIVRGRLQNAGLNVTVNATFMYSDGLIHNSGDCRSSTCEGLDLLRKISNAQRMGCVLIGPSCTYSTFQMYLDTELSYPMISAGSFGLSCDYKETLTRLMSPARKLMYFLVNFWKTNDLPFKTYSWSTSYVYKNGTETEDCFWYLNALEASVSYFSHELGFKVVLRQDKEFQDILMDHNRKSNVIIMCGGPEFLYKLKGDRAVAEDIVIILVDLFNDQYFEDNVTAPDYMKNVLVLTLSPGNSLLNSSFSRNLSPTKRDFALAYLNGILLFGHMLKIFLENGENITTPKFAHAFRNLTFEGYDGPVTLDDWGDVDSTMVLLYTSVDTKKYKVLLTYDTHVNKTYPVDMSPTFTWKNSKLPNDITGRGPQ

B2: 22G5 (anti-GCC rabbit monoclonal antibody, B cell clone supernatant) (antibody, V domains shown)
VH: QSVEESGGRLVTPGTPLTLTCTVSGIDLSSYAMTWVRQAPGEGLEWIGTINTISTAYYANWAKGRFTISKTSTTVDLKIASPTTEDTATYFCARDHGYYDVWGQGTLVTVSS
VL: AQVLTQTPSSVSAAVGGTVTINCQASQSVYKNNYLSWYQQKPGQPPRLLIYDASTLASGVPSRFKGSGSGTQFTLTISGVQCDDAATYYCLGEFSCSSGDCAAFGGGTEVVVK
percent of cells bound (flow cytometry) [3]: 99.9%
percent of cells bound (flow cytometry) [2]: 74.1%

B3: 22G5-Rabbit IgG (antibody, V domains shown)
VH: B2 VH
VL: AQVLTQTPSSVSAAVGGTVTINCQASQSVYKNNYLSWYQQKPGQPPRLLIYDASTLASGVPSRFKGSGSGTQFTLTISGVQCDDAATYYCLGEFSCSSGDCAAFGGGTEVVVKG
notes: Recombinant rabbit IgG (IgG1k) expressed in HD CHO-S cells: 22G5 VH-Rabbit IgG CH1-CH2-CH3 and 22G5 VL-Rabbit IgG CL; also called 22G5-Rabbit IgG antibody; 22G5 antibody
EC50 [4]: 0.824 nM
EC50 [5]: 0.619 nM
EC50 [6]: 1.23 nM
EC50 [7]: 0.102 nM

B7: 21E1 (anti-GCC rabbit monoclonal antibody, B cell clone supernatant) (antibody, V domains shown)
VH: QSLEESGGRLVTPGTPLTLTCTVSGIDLSSYDMTWVRQAPGKGLEWIGSIGDDGNTYYATWAKGRFTISKTSTTVHLKMTSLTTEDTATYFCARGWSFCKSWGQGTLVTVSS
VL: AQVLTQTASPVSAAVGGTVTISCQSSQSVANNNLAWYQQKPGQPPSPLIYKASTLESGVPSRFSGSGSGTQFALTISGVQCDDAATYYCQGAYRSGIMAFGGGTEVVVR
percent of cells bound (flow cytometry) [3]: 95.4%
percent of cells bound (flow cytometry) [2]: 99.7%

Further lines, results first:

binding result [1]: no binding
percent of cells bound (flow cytometry) [2]: 99.2%
B1: 14C2 (anti-GCC rabbit monoclonal antibody, B cell clone supernatant) (antibody, V domains shown)
VH: QSLEESGGRLVTPGTPLTLTCTASGFSLSNYDMSWVRQAPGKGLEWIGTIEPDGSTWYASWAKGRLTISRTSTTVDLKMTSLTTEDTATYFCVRGAPDYSSNAFNLWGQGTLVTVSS
VL: DVVMTQTPSSVSEPVGGTVTIKCQASQSISSYLAWYQQKPGQPPKLLIYKASTLASGVSSQFRGSGSGTEFTLTISDLECADAATYYCQSTYAASNKLHFAFGGGTDVVVK
notes: Tested as native rabbit antibody in B cell clone supernatant; also called 14C2-B cells; clone 14C2

EC50 [4]: 0.899 nM
EC50 [5]: 0.671 nM
EC50 [6]: 0.284 nM
EC50 [7]: 0.0254 nM
B4: PF0098-Rabbit IgG (antibody, V domains shown)
VH: QVQLQQPGAELVKPGASVKLSCKASGYTFTSYWMHWVKQRPGQGLEWIGEIKPSNGLTNYIEKFKNKATLTVDKSATTAYMQLSSLTAEDSAVYYCTRTITTTEGYWFFDVWGAGTTVTVSS
VL: DIVLTQSPASLAVSLGQRATISCRASESVDYYGTSLMQWYQQKPGQPPKLLIYAASNVESGVPARFSGSGSGTDFSLNIHPVEEDDIAMYFCQQTRKVYTFGGGTKLEIKG
notes: also called PF0098-Rabbit IgG antibody

percent of cells bound (flow cytometry) [3]: 65.9%
percent of cells bound (flow cytometry) [2]: 81.8%
B5: 48D5 (anti-GCC rabbit monoclonal antibody, B cell clone supernatant) (antibody, V domains shown)
VH: QSLEESGGRLVKPDETLTITCTVSGIDLSSNAISWVRQAPGEGLEYIGYIGTGGKSFYATWTKGRFTISKTSTTVDLKMTSLTNEDTAMYFCATGNTYLDLWGQGTLVTVSS
VL: AQVLTQTPSSVSAAVGGTVTINCQSSQSVYGADYLAWYQQKPGQPPKLLIYRASNLASGVPSRFRGSGSGTQFTLTISEVQCDDAATYYCQGTYISSDWLNPFGGGTEVVVK

percent of cells bound (flow cytometry) [3]: 95.1%
percent of cells bound (flow cytometry) [2]: 95.4%
B6: 25E2 (anti-GCC rabbit monoclonal antibody, B cell clone supernatant) (antibody, V domains shown)
VH: QSVEESGGRLVTPGTPLTLTCTVSGIDLNKHAMGWVRQAPTKGLEWIGTIYVSTNTAYASWAKGRFTISKTSSTTVDLKMTSLTTEDTATYFCARGGGSSYYTGELYFNLWGQGTLVTVSS
VL: AYDMTQTPASVEVAVGGTVSIKCQVSQSIGSWLAWYQQKPGQPPKLLIYSASTLASGVSSRFKGSGSGTEFTLTISDLACVDAATYYCQSYSSASTTAFGGGTEVVVR
